Results taken from article PMC11096400 (Scientific Reports, 2024).

Substrate: N[C@@H](CCC(=O)O)C(=O)O
Experiment: purified protein
Conditions: 0.1-1.0 mM NADP, 50 mM Tris, pH 7.5, 293 K, 20.0 °C

B1: glutamate dehydrogenase (GDH) (Thermococcus profundus) (protein)
chain: MVEIDPFEMAVKQLERAAQYMDISEEALEWLKKPMRIVEVSVPIEMDDGSVKVFTGFRVQHNWARGPTKGGIRWHPAETLSTVKALATWMTWKVAVVDLPYGGGKGGIIVNPKELSEREQERLARAYIRAVYDVIGPWTDIPAPDVYTNPKIMGWMMDEYETIMRRKGPAFGVITGKPLSIGGSLGRGTATAQGAIFTIREAAKALGIDLKGKKIAVQGYGNAGYYTAKLAKEQLGMTVVAVSDSRGGIYNPDGLDPDEVLKWKREHGSVKDFPGATNITNEELLELEVDVLAPAAIEEVITEKNADNIKAKIVAEVANGPVTPEADDILREKGILQIPDFLCNAGGVTVSYFEWVQNINGYYWTEEEVREKLDKKMTKAFWEVYNTHKDKNIHMRDAAYVVAVSRVYQAMKDRGWVKK
  Km: 2380 ± 24 µM
  kcat: 2.78 ± 0.00 s⁻¹
